Results reported in CN1930187A (ABGENIX INC, dated 2007).

B1: SC-EGFRvIII-XG1-131 (antibody, V domains shown)
VH: QVQLVESGGGVVQSGRSLRLSCAASGFTFRNYGMHWVRQAPGKGLEWVAVIWYDGSDKYYADSVRGRFTISRDNSKNTLYLQMNSLRAEDTAVYYCARDGYDILTGNPRDFDYWGQGTLVTVSS
VL: DTVMTQTPLSSHVTLGQPASISCRSSQSLVHSDGNTYLSWLQQRPGQPPRLLIYRISRRFSGVPDRFSGSGAGTDFTLEISRVEAEDVGVYYCMQSTHVPWTFGQGTKVEIK
notes: Recombinant human antibody (XenoMax)
B2: SC-EGFRvIII-XG1-250 (antibody, human IgG1, V domains shown)
VH: EGQLLESGGGWVQPGESLRLSCAASGFTFSSYAMSWVRQAPGKGLEWVSAISGSGGSTNYADSVKGRFTISRDNSKNTLYLQVNSLRVEDTAVYYCAGSSGWSEYWGQGTLVTVSS
VL: DIQMTQSPSSLSASVGDSVTITCRTSQGIRKNLGWYQQKPGKAPKRLIYAASSLQSGVPSRFSGSGSGTEFTLTISRLQPEDFATYYCLQHHSYPLTFGGGTRVEIR
notes: also called sc250; SC250
B3: SC-EGFRvIII-XG1-139 (antibody, human IgG1, V domains shown)
VH: EVQVLESGGGLVQPGGSLRLSCAASGFTFSSYAMSWVRQAPGKGLEWVSAISGSGGSTNYADSVKGRFTISRDNSKNTLYLQMNSLRAEDTAVYYCAGSSGWSEYWGQGTLVTVSS
VL: DIQMTQSPSSLSASVGDRVTITCRASQGIRNNLAWYQQKPGKAPKRLIYAASNLQSGVPSRFTGSGSGTEFTLIVSSLQPEDFATYYCLQHHSYPLTSGGGTKVEIK
B4: AB-EGFRvIII-XG1-095 (antibody, human IgG1, V domains shown)
VH: QVQLQESGPFLVKPSQTLSLTCTVSGGSISSGGYYWSWIRQHPGKGLEWIGFIYYRGNTYYNPSLKSRVTISVDTSKNQFSLKLSSVTAADTAVYYCARDGYCSRTGCYGGWFDPWGQGTLVTVSP
VL: DIVMTQTPLSSPVTLGQPASISCRSSQSLIHTDGNIYLSWLQQRPGQPPRLLIYKISNRFSGVPDRFSGSGAGTDFTLKISRVEAEDVGVYYCMQGTQFPITFGQGTRLEIK
B5: SC-EGFRvIII-XG2-150 (antibody, human IgG1, V domains shown)
VH: QVQLQQSGPGLVKPSQTLSLTCAISGDSVSSYSSAWNWIRQSPSRGLEWLGRAYHRSRWYYEYAVSVKSRINITPDTSKNQFSLQLNSVTPEDTAVYYCARGSRFDYWGQGTLVTVSS
VL: DIVMTQTPLSSPVTLGQPASISCRSSQSLVHRDGNTYLSWLQQRPGQPPRLLIYKISNRFSGVPDRFSGSGAGTDFTLKISRVEAEDVGIYFCMHTTQFPWTFGQGTRVEIK
B6: SC-EGFRvIII-XG1-211 (antibody, human IgG1, V domains shown)
VH: QVQLVESGGGVVQPGRSLRLSCVASGFTLSSYGMHWVRQAPGKGLEWVAVTSYDGSKKDYADSAKGRFTISRDNSKNTLYLQMNSLRAEDTAVYYCVSEGYCSSSSCYKYYYYGMDVWGQGTTVTVSS
VL: DIVMTQSPLSLPVTPGEPASISCRSSQSLLYRNGNNYLDWYLQRPGQSPQLLIYLGSNRASGVPDRFSGSGSGTDFTLKISRVEAEDVGVYYCMQALQTPRTFGQGTKVEIK
B7: AB-EGFRvIII-XG1K-13.1.2 (antibody, V domains shown)
VH: QVQLVESGGGVVQPGRSLRLSCAASGFTFSSYGMHWVRQAPGKGLEWVAVIWYDGSNKYYVDSVKGRFTISRDNSKNTLYLQMNSLRAEDTAVYYCARDGWQQLAPFDYWGQGTLVTVSS
VL: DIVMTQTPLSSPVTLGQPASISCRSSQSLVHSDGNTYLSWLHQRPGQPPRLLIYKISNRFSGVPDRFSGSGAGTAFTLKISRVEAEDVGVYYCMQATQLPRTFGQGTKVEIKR
notes: Human IgG1 kappa from a XenoMouse G1 hybridoma; Residue numbers of the mutants count on this running numbering
B8: SC-EGFRvIII-XG2-170 (antibody, human IgG1, V domains shown)
VH: QVQLQQSGPGLVKPSQTLSLTCAISGDSVSSNNAAWNWIRQSPARGLEWLGRTYYRSKWYNDYVVSVKSRITINPDTSKNQFSLQLNSVTPEDTAVYYCVRATAFDYWGQGTLVTVSS
VL: AIVLTQTPLSSPVTLGQPASISCRSSQSLVHRDGNTYLSWLQQRPGQPPRLLIYKISNRFSGVPDRFSGSGAGTDFTLKISRVEPDDVGVYYCMHTTQLPWTFGQGTKVEIK

Target: T1, EGFRvIII PEP3 peptide conjugated to OVA (EGFRvIII肽-OVA) (human, Cys 14 coupled to maleimide-activated ovalbumin (peptide:OVA 14.5:1))
T1 construct: also called EGFRvIII peptide-OVA; VIII-pep-OVA
T1 peptide: LEEKKGNYVVTDHC
Experiment: binding to pep3 (XenoMax screen)

B1: binds.
B2: binds.

target: EGFRvIII (full length, expressed by cells: NR6 M, H1477, 300.19/EGFRvIII) (human, UniProt P00533 298-1210); experiment: cell-based or functional assay

First: B3
Second: B2
The “%内在化” value of the first is higher: 80.8% for the first, 16.7% for the second.

Going from B4 to B5, the “%内在化” value falls from 72.4% to 20%.

First: B6
Second: B7
The “%内在化” value of the first is lower: 21.6% for the first, 82.5% for the second.

With B8 the “%内在化” value was 20.1%.
